According to article PMC7375243, “Structural Basis of Human Helicase DDX21 in RNA Binding, Unwinding, and Antiviral Signal Activation” (Advanced Science, 2020):

Legend:
Conditions in all cases: protein: recombinant; tags: N-terminal His-SUMO, removed by ULP1; label: FAM; single strand
DDX21 core T494A = target: T1, DDX21 core T494A (human, UniProt Q9NR30 188-563, T494A); test: UV crosslinking; negligibly affected; MST: 50 mM Tris pH 7.5, 50 mM KCl, 2 mM MgCl2, 1 mM TCEP, 0.01% NP-40, 0.05 mg/mL BSA, 2 mM AMPPNP, 50 nM FAM-RNA; temperature not given; crosslinking buffer not in material
T1 sequence: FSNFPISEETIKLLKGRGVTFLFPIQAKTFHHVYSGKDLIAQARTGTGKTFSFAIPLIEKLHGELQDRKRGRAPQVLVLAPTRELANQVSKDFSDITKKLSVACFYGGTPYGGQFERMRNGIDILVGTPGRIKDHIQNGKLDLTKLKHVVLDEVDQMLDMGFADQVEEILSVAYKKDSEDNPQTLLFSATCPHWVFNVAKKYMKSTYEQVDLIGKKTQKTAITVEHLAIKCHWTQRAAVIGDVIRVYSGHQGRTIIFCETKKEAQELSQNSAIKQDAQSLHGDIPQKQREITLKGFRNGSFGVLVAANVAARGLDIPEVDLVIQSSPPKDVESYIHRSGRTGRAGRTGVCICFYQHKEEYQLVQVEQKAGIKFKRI

DDX21 core T315A = target: T2, DDX21 core T315A (human, UniProt Q9NR30 188-563, T315A); test: as above
T2 sequence: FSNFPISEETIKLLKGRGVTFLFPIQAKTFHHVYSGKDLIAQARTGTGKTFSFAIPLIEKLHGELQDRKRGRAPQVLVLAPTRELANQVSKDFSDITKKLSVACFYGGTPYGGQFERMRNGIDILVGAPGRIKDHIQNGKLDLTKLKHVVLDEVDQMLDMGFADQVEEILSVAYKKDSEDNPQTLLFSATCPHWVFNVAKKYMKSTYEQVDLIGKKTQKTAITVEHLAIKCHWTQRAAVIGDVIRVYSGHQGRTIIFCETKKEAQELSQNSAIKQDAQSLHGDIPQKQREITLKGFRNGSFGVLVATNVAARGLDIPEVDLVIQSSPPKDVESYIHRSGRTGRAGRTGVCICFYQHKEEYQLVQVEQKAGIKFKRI

[1] = target: T3, DDX21 core D339H/E340G (DEV mutant) (human, UniProt Q9NR30 188-563, D339H;E340G); test: UV crosslinking; highest activity of all; MST: 50 mM Tris pH 7.5, 50 mM KCl, 2 mM MgCl2, 1 mM TCEP, 0.01% NP-40, 0.05 mg/mL BSA, 2 mM AMPPNP, 50 nM FAM-RNA; temperature not given; crosslinking buffer not in material
T3 sequence: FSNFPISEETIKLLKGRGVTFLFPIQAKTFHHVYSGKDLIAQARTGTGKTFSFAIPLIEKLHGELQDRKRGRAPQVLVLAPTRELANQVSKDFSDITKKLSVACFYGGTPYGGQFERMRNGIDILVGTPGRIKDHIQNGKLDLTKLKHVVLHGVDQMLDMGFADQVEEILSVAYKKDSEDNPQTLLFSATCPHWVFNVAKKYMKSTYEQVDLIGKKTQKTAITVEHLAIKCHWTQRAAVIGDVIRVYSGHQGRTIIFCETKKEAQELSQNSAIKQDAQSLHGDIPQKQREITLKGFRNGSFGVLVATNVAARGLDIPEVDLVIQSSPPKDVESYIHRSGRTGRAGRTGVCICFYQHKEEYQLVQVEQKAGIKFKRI

DDX21 core 7A = target: T4, DDX21 core 7A (human, UniProt Q9NR30 188-563, R270A;T315A;R318A;D321A;Q352A;R476A;T494A); test: UV crosslinking; comparable to WT; MST: 50 mM Tris pH 7.5, 50 mM KCl, 2 mM MgCl2, 1 mM TCEP, 0.01% NP-40, 0.05 mg/mL BSA, 2 mM AMPPNP, 50 nM FAM-RNA; temperature not given; crosslinking buffer not in material
T4 sequence: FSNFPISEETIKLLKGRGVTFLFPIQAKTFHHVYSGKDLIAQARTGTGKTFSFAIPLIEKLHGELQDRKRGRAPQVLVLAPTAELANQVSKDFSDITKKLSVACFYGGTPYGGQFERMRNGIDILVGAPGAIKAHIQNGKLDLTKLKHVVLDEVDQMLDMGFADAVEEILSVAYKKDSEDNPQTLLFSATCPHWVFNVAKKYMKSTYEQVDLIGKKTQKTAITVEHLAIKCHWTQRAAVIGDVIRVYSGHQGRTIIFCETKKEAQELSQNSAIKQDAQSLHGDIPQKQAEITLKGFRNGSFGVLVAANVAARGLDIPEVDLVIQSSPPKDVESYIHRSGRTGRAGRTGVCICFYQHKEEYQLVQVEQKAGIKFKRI

DDX21 core 8A = target: T5, DDX21 core 8A (human, UniProt Q9NR30 188-563, R255A;R270A;T315A;R318A;D321A;Q352A;R476A;T494A); test: as above
T5 sequence: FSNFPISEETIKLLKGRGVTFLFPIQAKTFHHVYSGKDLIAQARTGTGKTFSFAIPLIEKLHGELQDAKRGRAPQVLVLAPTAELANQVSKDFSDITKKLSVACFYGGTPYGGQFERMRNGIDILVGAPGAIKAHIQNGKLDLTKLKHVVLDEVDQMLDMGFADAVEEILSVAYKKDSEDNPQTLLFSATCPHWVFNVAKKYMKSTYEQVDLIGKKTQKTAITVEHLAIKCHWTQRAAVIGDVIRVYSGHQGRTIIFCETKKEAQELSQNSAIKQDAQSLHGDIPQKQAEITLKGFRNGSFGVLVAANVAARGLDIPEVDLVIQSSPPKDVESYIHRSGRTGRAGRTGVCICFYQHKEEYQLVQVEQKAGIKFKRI

Measured: binding result

UUUUUUUUUUUUUUU (ssRNA) [FAM-U15]
binds: all assays above
